Experimental data from publication PMC7926622, “Structure–Function Relationship Study of a Secretory Amoebic Phosphatase: A Computational-Experimental Approach” (International Journal of Molecular Sciences, 2021).

Test system: O=P(O)(O)OP(=O)(O)O
Assay: purified protein
Conditions: pH 9.0 (100 mM Tris-HCl; optimum pH), 5 mM MgSO4, 37 °C, 0.1 µM enzyme
Description: malachite green phosphate release, Michaelis-Menten fit on rEhHAPp49

Work on “rEhHAPp49 (Entamoeba histolytica HM-1:IMSS)” yielded a Km of 12 ± 2 µM, a kcat of 0.177 ± 0.00333 s⁻¹ and a kcat/Km of 14700 M⁻¹ s⁻¹.
